Consider 9 molecules from PMC7913699 (Nucleic Acids Research, 2021).

Substitutions are numbered along the chain they refer to.

Series [1] addresses T1, RcsB wild-type (Salmonella Typhimurium, UniProt P58663 1-216).
T1 sequence: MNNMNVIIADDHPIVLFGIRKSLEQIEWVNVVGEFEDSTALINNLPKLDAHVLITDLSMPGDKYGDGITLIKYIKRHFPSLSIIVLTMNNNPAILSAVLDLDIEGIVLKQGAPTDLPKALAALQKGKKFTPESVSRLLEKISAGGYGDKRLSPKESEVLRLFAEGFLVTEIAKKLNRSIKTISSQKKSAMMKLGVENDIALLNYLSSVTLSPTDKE
Put plainly: EMSA.

Series [2] deals with T1, RcsB wild-type. Put plainly: EMSA. This is another data set of the same source. For orientation: A gel shift assay detects complexes by their altered migration in electrophoresis.
For series [3], the target named is T1, RcsB wild-type. Put plainly: EMSA. This is another data set of the same source.
In series [4] the target is T1, RcsB wild-type. Put plainly: crystal structure.
The target in the next series is T2, RcsB-L108A (Salmonella Typhimurium, UniProt P58663 1-216, L108A).
T2 sequence: T1 sequence with L108A
Put plainly: EMSA.

The series “crystal structure” deals with the molecule itself. Put plainly: crystal structure.

B1: nlpD (dsDNA)
DNA 1: ACCTTTCGGAATATTCCCATACT
DNA 2: AGTATGGGAATATTCCGAAAGGT
Consider B1, for which the binding result with RcsB wild-type [1] is reported as “binds”.

B2: osmB (dsDNA)
DNA 1: CTCTCTAAGACTTTTCTGACATC
DNA 2: GATGTCAGAAAAGTCTTAGAGAG
For B2, the binding result in the series with RcsB wild-type [1] is recorded as “binds”.

B3: P1flhDC second AGA to AGG (dsDNA)
DNA 1: CGAATTAGGAAAAACCTTAGGCG
DNA 2: CGCCTAAGGTTTTTCCTAATTCG
Consider B3, for which the binding result in the series with RcsB wild-type [2] is “binds”.

B4: P1flhDC first GGA to AGA (dsDNA)
DNA 1: CGAATTAAGAAAAATCTTAGGCG
DNA 2: CGCCTAAGATTTTTCTTAATTCG
B4: the binding result with RcsB wild-type [3] is recorded as “binds”.

B5: flgA (dsDNA)
DNA 1: GTTAATAAGAATATTCCCATCAG
DNA 2: CTGATGGGAATATTCTTATTAAC
For B5, the binding result with RcsB wild-type [1] is “binds”.

B6: PrprA (dsDNA)
DNA 1: CCTATTGAGACGAATCTGATCGG
DNA 2: CCGATCAGATTCGTCTCAATAGG
In the case of B6, the binding result with RcsB wild-type [4] was “binds”.

B7: ytfK (dsDNA)
DNA 1: GATGTTTAGATAATTCTGAATAA
DNA 2: TTATTCAGAATTATCTAAACATC
On to B7, for which the binding result with RcsB wild-type [1] is “binds”.

B8: P1flhDC (dsDNA)
DNA 1: CGAATTAGGAAAAATCTTAGGCG
DNA 2: CGCCTAAGATTTTTCCTAATTCG
For B8, the binding result in the series with RcsB-L108A is reported as “no binding”.

B9: RcsB from S. Typhimurium, full-length wild-type, bound to phosphomimetic BeF3- (natural protein, UniProt P58663 1-216, looked up)
chain: T1 sequence
modifications: phosphomimetic BeF3- bound in the active site (phosphorylatable residue D56)
Regarding B9, in “crystal structure”, the “stoichiometry N” value amounted to 2.

The term stoichiometry N denotes a count of units in the complex or per binding partner.
